{"source": "paper PMC7316778", "about": "(Nature Communications, 2020)", "data": [{"target": "T1, FES^WT (Homo sapiens, UniProt P07332)", "T1 construct": "human FES cDNA encoding residues 448–822 or human FER cDNA encoding residues 448–820 was amplified by PCR; made in house; host or cells: E. coli BL21(DE3), co-expressing YopH phosphatase", "T1 sequence (P07332 448-822)": "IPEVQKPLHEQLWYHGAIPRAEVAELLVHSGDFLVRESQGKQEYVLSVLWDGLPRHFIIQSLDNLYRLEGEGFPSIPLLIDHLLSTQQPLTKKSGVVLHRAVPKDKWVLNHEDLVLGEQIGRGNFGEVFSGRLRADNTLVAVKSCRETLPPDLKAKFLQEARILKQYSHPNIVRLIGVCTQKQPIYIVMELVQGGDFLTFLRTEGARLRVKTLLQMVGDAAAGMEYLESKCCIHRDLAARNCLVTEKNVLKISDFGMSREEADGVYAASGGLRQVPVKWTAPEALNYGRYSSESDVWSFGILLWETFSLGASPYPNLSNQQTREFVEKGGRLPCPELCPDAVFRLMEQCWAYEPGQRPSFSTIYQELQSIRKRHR", "experiment": "PamChip microarray peptide phosphorylation", "format": "biochemical", "settings": "peptide substrate phosphorylated by FES - WT", "values": [{"substance": "EPOR_361_373 (SEHAQDTYLVLDK; UniProt P19235 361-373, looked up, fragment)", "Relative phosphorylation (% of highest signal)": "3.3 % of highest signal"}, {"substance": "EFS_246_258_Y253F (GGTDEGIFDVPLL; UniProt O43281 246-258, looked up, fragment Y253F)", "Relative phosphorylation (% of highest signal)": "-0.634 % of highest signal"}, {"substance": "AMPE_5_17 (EREGSKRYCIQTK; UniProt Q07075 5-17, looked up, fragment)", "Relative phosphorylation (% of highest signal)": "-0.1 % of highest signal"}, {"substance": "VGFR2_1168_1180 (AQQDGKDYIVLPI; UniProt P35968 1168-1180, looked up, fragment)", "Relative phosphorylation (% of highest signal)": "6.1 % of highest signal"}, {"substance": "STAT6_634_646 (MGKDGRGYVPATI; UniProt P42226 634-646, looked up, fragment)", "Relative phosphorylation (% of highest signal)": "-0.355 % of highest signal"}, {"substance": "VGFR3_1061_1073 (DIYKDPDYVRKGS; UniProt P35916 1061-1073, looked up, fragment)", "Relative phosphorylation (% of highest signal)": "-0.0595 % of highest signal"}, {"substance": "DDR1_506_518 (LLLSNPAYRLLLA; UniProt Q08345 506-518, looked up, fragment)", "Relative phosphorylation (% of highest signal)": "-0.4 % of highest signal"}, {"substance": "MBP_263_275 (GRASDYKSAHKGF; UniProt P02686 263-275, looked up, fragment)", "Relative phosphorylation (% of highest signal)": "-0.25 % of highest signal"}]}, {"target": "ABL1 (Homo sapiens, UniProt P00519)", "sequence (P00519 whole entry, the tested form may be a part)": "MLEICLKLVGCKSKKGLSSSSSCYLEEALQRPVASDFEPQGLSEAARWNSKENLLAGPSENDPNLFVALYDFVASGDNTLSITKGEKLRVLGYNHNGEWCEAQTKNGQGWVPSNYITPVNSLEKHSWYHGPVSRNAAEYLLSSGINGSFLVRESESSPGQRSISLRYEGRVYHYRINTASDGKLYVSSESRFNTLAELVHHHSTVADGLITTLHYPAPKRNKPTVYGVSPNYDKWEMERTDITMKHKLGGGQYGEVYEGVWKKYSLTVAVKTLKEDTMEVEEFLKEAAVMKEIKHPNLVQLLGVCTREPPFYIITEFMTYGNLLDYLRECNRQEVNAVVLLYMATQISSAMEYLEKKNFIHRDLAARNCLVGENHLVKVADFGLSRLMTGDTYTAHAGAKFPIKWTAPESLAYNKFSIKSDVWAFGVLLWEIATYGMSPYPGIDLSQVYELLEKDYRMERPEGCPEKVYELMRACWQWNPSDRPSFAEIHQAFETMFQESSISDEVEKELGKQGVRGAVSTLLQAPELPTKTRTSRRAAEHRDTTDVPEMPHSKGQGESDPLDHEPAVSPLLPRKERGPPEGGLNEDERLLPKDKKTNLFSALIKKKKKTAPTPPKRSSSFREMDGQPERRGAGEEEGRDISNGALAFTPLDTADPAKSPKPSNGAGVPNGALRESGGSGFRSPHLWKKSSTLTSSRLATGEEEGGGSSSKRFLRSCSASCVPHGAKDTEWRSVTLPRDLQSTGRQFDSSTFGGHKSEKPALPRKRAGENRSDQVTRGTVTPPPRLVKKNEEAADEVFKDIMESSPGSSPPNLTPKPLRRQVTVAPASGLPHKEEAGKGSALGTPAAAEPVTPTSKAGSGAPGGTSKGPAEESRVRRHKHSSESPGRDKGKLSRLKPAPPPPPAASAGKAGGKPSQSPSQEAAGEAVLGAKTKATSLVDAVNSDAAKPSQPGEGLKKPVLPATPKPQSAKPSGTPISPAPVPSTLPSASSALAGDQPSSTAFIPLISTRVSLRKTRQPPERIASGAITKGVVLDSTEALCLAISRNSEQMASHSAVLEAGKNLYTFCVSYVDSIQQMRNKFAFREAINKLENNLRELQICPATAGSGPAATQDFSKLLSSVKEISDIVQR", "experiment": "PamChip microarray peptide phosphorylation", "settings": "peptide substrate phosphorylated by ABL1", "values": [{"substance": "EPOR_361_373 (SEHAQDTYLVLDK; UniProt P19235 361-373, looked up, fragment)", "Relative phosphorylation (% of highest signal)": "0.0544 % of highest signal"}, {"substance": "EFS_246_258_Y253F (GGTDEGIFDVPLL; UniProt O43281 246-258, looked up, fragment Y253F)", "Relative phosphorylation (% of highest signal)": "-0.5 % of highest signal"}, {"substance": "AMPE_5_17 (EREGSKRYCIQTK; UniProt Q07075 5-17, looked up, fragment)", "Relative phosphorylation (% of highest signal)": "-0.436 % of highest signal"}, {"substance": "VGFR2_1168_1180 (AQQDGKDYIVLPI; UniProt P35968 1168-1180, looked up, fragment)", "Relative phosphorylation (% of highest signal)": "0.014 % of highest signal"}, {"substance": "STAT6_634_646 (MGKDGRGYVPATI; UniProt P42226 634-646, looked up, fragment)", "Relative phosphorylation (% of highest signal)": "-0.6 % of highest signal"}, {"substance": "VGFR3_1061_1073 (DIYKDPDYVRKGS; UniProt P35916 1061-1073, looked up, fragment)", "Relative phosphorylation (% of highest signal)": "2.9 % of highest signal"}, {"substance": "DDR1_506_518 (LLLSNPAYRLLLA; UniProt Q08345 506-518, looked up, fragment)", "Relative phosphorylation (% of highest signal)": "-1.4 % of highest signal"}, {"substance": "MBP_263_275 (GRASDYKSAHKGF; UniProt P02686 263-275, looked up, fragment)", "Relative phosphorylation (% of highest signal)": "-0.13 % of highest signal"}]}, {"target": "CSK (Homo sapiens, UniProt P41240)", "sequence (P41240 whole entry, the tested form may be a part)": "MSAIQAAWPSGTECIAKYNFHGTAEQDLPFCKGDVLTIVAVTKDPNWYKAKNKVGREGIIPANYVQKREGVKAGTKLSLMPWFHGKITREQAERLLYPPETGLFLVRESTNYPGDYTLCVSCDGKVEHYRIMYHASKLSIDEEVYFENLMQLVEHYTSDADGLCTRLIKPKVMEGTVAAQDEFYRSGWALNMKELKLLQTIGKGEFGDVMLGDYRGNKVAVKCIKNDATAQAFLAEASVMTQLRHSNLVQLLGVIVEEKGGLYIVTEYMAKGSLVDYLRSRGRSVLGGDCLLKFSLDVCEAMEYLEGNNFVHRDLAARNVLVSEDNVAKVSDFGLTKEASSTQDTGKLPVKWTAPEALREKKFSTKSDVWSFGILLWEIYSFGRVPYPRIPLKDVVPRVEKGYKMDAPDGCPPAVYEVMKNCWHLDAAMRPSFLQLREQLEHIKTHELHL", "experiment": "PamChip microarray peptide phosphorylation", "settings": "peptide substrate phosphorylated by CSK", "values": [{"substance": "EPOR_361_373 (SEHAQDTYLVLDK; UniProt P19235 361-373, looked up, fragment)", "Relative phosphorylation (% of highest signal)": "2.0 % of highest signal"}, {"substance": "EFS_246_258_Y253F (GGTDEGIFDVPLL; UniProt O43281 246-258, looked up, fragment Y253F)", "Relative phosphorylation (% of highest signal)": "-0.6 % of highest signal"}, {"substance": "AMPE_5_17 (EREGSKRYCIQTK; UniProt Q07075 5-17, looked up, fragment)", "Relative phosphorylation (% of highest signal)": "-0.745 % of highest signal"}, {"substance": "VGFR2_1168_1180 (AQQDGKDYIVLPI; UniProt P35968 1168-1180, looked up, fragment)", "Relative phosphorylation (% of highest signal)": "0.544 % of highest signal"}, {"substance": "STAT6_634_646 (MGKDGRGYVPATI; UniProt P42226 634-646, looked up, fragment)", "Relative phosphorylation (% of highest signal)": "-1.1 % of highest signal"}, {"substance": "VGFR3_1061_1073 (DIYKDPDYVRKGS; UniProt P35916 1061-1073, looked up, fragment)", "Relative phosphorylation (% of highest signal)": "0.341 % of highest signal"}, {"substance": "DDR1_506_518 (LLLSNPAYRLLLA; UniProt Q08345 506-518, looked up, fragment)", "Relative phosphorylation (% of highest signal)": "-1.7 % of highest signal"}, {"substance": "MBP_263_275 (GRASDYKSAHKGF; UniProt P02686 263-275, looked up, fragment)", "Relative phosphorylation (% of highest signal)": "-0.5 % of highest signal"}]}, {"target": "FGR (Homo sapiens, UniProt P09769)", "experiment": "PamChip microarray peptide phosphorylation", "settings": "peptide substrate phosphorylated by FGR", "values": [{"substance": "EPOR_361_373 (SEHAQDTYLVLDK; UniProt P19235 361-373, looked up, fragment)", "Relative phosphorylation (% of highest signal)": "2.0 % of highest signal"}, {"substance": "EFS_246_258_Y253F (GGTDEGIFDVPLL; UniProt O43281 246-258, looked up, fragment Y253F)", "Relative phosphorylation (% of highest signal)": "-4.8 % of highest signal"}, {"substance": "AMPE_5_17 (EREGSKRYCIQTK; UniProt Q07075 5-17, looked up, fragment)", "Relative phosphorylation (% of highest signal)": "-1.5 % of highest signal"}, {"substance": "VGFR2_1168_1180 (AQQDGKDYIVLPI; UniProt P35968 1168-1180, looked up, fragment)", "Relative phosphorylation (% of highest signal)": "-1.8 % of highest signal"}, {"substance": "STAT6_634_646 (MGKDGRGYVPATI; UniProt P42226 634-646, looked up, fragment)", "Relative phosphorylation (% of highest signal)": "-4.7 % of highest signal"}, {"substance": "VGFR3_1061_1073 (DIYKDPDYVRKGS; UniProt P35916 1061-1073, looked up, fragment)", "Relative phosphorylation (% of highest signal)": "0.468 % of highest signal"}, {"substance": "DDR1_506_518 (LLLSNPAYRLLLA; UniProt Q08345 506-518, looked up, fragment)", "Relative phosphorylation (% of highest signal)": "-6.2 % of highest signal"}, {"substance": "MBP_263_275 (GRASDYKSAHKGF; UniProt P02686 263-275, looked up, fragment)", "Relative phosphorylation (% of highest signal)": "-0.9 % of highest signal"}]}, {"target": "LYN (Homo sapiens, UniProt P07948)", "sequence (P07948 whole entry, the tested form may be a part)": "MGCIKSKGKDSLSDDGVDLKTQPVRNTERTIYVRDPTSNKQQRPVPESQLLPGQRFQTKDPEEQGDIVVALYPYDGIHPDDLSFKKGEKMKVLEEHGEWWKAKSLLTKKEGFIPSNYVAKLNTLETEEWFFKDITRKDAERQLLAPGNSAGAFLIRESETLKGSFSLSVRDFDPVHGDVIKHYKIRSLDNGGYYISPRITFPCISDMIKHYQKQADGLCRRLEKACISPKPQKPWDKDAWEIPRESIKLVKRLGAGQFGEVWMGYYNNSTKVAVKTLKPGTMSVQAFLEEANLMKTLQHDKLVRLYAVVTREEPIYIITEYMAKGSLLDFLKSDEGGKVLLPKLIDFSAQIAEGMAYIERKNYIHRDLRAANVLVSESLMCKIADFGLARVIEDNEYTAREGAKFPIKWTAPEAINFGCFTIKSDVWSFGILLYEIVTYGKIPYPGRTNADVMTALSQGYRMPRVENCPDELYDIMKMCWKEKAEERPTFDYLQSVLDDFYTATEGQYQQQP", "experiment": "PamChip microarray peptide phosphorylation", "settings": "peptide substrate phosphorylated by LYN", "values": [{"substance": "EPOR_361_373 (SEHAQDTYLVLDK; UniProt P19235 361-373, looked up, fragment)", "Relative phosphorylation (% of highest signal)": "1.2 % of highest signal"}, {"substance": "EFS_246_258_Y253F (GGTDEGIFDVPLL; UniProt O43281 246-258, looked up, fragment Y253F)", "Relative phosphorylation (% of highest signal)": "-0.264 % of highest signal"}, {"substance": "AMPE_5_17 (EREGSKRYCIQTK; UniProt Q07075 5-17, looked up, fragment)", "Relative phosphorylation (% of highest signal)": "0.114 % of highest signal"}, {"substance": "VGFR2_1168_1180 (AQQDGKDYIVLPI; UniProt P35968 1168-1180, looked up, fragment)", "Relative phosphorylation (% of highest signal)": "0.147 % of highest signal"}, {"substance": "STAT6_634_646 (MGKDGRGYVPATI; UniProt P42226 634-646, looked up, fragment)", "Relative phosphorylation (% of highest signal)": "-0.3 % of highest signal"}, {"substance": "VGFR3_1061_1073 (DIYKDPDYVRKGS; UniProt P35916 1061-1073, looked up, fragment)", "Relative phosphorylation (% of highest signal)": "0.0483 % of highest signal"}, {"substance": "DDR1_506_518 (LLLSNPAYRLLLA; UniProt Q08345 506-518, looked up, fragment)", "Relative phosphorylation (% of highest signal)": "-1.0 % of highest signal"}, {"substance": "MBP_263_275 (GRASDYKSAHKGF; UniProt P02686 263-275, looked up, fragment)", "Relative phosphorylation (% of highest signal)": "-0.172 % of highest signal"}]}, {"target": "SYK (Homo sapiens, UniProt P43405)", "experiment": "PamChip microarray peptide phosphorylation", "settings": "peptide substrate phosphorylated by SYK", "values": [{"substance": "EPOR_361_373 (SEHAQDTYLVLDK; UniProt P19235 361-373, looked up, fragment)", "Relative phosphorylation (% of highest signal)": "12.7 % of highest signal"}, {"substance": "EFS_246_258_Y253F (GGTDEGIFDVPLL; UniProt O43281 246-258, looked up, fragment Y253F)", "Relative phosphorylation (% of highest signal)": "-1.2 % of highest signal"}, {"substance": "AMPE_5_17 (EREGSKRYCIQTK; UniProt Q07075 5-17, looked up, fragment)", "Relative phosphorylation (% of highest signal)": "-1.8 % of highest signal"}, {"substance": "VGFR2_1168_1180 (AQQDGKDYIVLPI; UniProt P35968 1168-1180, looked up, fragment)", "Relative phosphorylation (% of highest signal)": "2.7 % of highest signal"}, {"substance": "STAT6_634_646 (MGKDGRGYVPATI; UniProt P42226 634-646, looked up, fragment)", "Relative phosphorylation (% of highest signal)": "-2.2 % of highest signal"}, {"substance": "VGFR3_1061_1073 (DIYKDPDYVRKGS; UniProt P35916 1061-1073, looked up, fragment)", "Relative phosphorylation (% of highest signal)": "2.4 % of highest signal"}, {"substance": "DDR1_506_518 (LLLSNPAYRLLLA; UniProt Q08345 506-518, looked up, fragment)", "Relative phosphorylation (% of highest signal)": "-3.9 % of highest signal"}, {"substance": "MBP_263_275 (GRASDYKSAHKGF; UniProt P02686 263-275, looked up, fragment)", "Relative phosphorylation (% of highest signal)": "-0.355 % of highest signal"}]}]}
